Assay results as given in patent US8615311B2, “Microelectorode array, methods for preparing the same and uses thereof” (Rutgers, The State University of New Jersey, priority 2010, dated 2013).

How the values were obtained:
Assay type in all cases: cell-based, rat
[1] = system: Myoblasts; assay: Myoblast fusion and differentiation into myotubes on surfaces adsorbed with different coatings
Method: Myoblasts were isolated and cultured as previously described. Briefly, pregnant Sprague Dawley rats were sacrificed by CO2 inhalation at gestational day 21, and pups were removed by Cesarean section. Hind limb muscles were removed, and tissue was finely minced and digested (20 min at 37° C.) in PBS containing 1.5 U/ml collagenase (type D, Roche, Mannheim, Germany) and 2.5 U/ml dispase (type II, Roche, Mannheim, Germany). Single cells were separated from debris, pelleted by centrifugation, and resuspended in growth medium consisting of Ham's F-10 medium plus 20% fetal bovine serum, 1% Penicillin/Streptomycin, (all from Invitrogen, Carlsbad, Calif.) and 2.5 ng/ml human b-FGF (Promega Corporation, Madison, Wis.). Cells were then plated into 75 cm^2 flasks and incubated for 24 hrs. Adherent cells were resuspended and plated onto PDMS substrates in differentiation medium consisting of Neurobasal medium including 2% B-27 supplement, 1% Penicillin/Streptomycin and 1% GlutaMAX (all from Invitrogen, Carlsbad, Calif.) at a surface density of 200,000 cells/cm^2. Prior to seeding, surfaces were plasma treated (O2 plasma for 120 S at 50 Watts) and adsorbed overnight with 40 μg/ml laminin (Sigma Aldrich, St. Louis, Mo.). Medium changes were performed every other day.

[2] = system: Spinal cord explants; assay: Axonal outgrowth from spinal cord explants with or without Ara-C in the medium; settings: 1 μm Ara-C added to NB medium, after 13 days in culture, vs standard NB medium
Method: Spinal cord explants are prepared using procedures known in the art. Briefly, pregnant Sprague Dawley rats were sacrificed by CO2 inhalation at gestational day 15, and pups were removed by Cesarean section. Spinal cord was removed posteriorly and transferred to a PDMS-lined petri dish in a drop of medium. The cord is then bisected longitudinally and finely minced transversely into sections 200-300 μm thick. Sections were suspended in NB medium plus 1% GlutaMAX supplement and 2% B27 supplement. Explants were then plated onto chemically or topographically patterned glass substrates or MEAS, all of which had been adsorbed overnight with laminin at 40 μg/ml in 10 μL of medium. Explants can be precisely positioned on the growth substrate during this step. In this experiment, explants were positions with the explant body over three contacts in the top row of the MEA, allowing space for axonal outgrowth over the other contacts. After 5 min, allowing for initial adhesion, enough medium was added to just cover the explant, and it was placed in an incubator at 5% CO2 and 37 deg C. Medium was replaced every 2 days.
Explants were fixed and stained on DIV 13 to identify axonal and dendritic outgrowth. […] Five well-attached explants were imaged in each condition, and their outgrowth was quantified using ImageJ software (NIH, Bethesda Md.). […]

[3] = system: Hippocampal neurons; assay: Morphology and Sholl analysis (Bonfire program) of GFP-transfected hippocampal neurons treated with BDNF; settings: 25 ng/ml BDNF
Method: Hippocampal neurons were isolated from E18 rat embryos and cultured. Briefly, embryos were removed by Cesarian section at 18 days gestation and decapitated. The hippocampi were manually dissected under a microscope, and cells were triturated with a fire polished glass pipette tip, counted on a hemocytometer, and plated at a density of ˜1800 cells per mm^2 on 35 mm petri plates (Corning) coated with 1 mg/ml poly-D-lysine (Sigma-Aldrich). Cultures were maintained in Neurobasal medium containing penicillin, streptomycin, glutamine, and B27 supplement (NB; all purchased from Invitrogen).
At 5 days in vitro (DIV5), cells were transfected with cDNA encoding GFP using Effectene (Qiagen). The low efficiency of this transfection technique in this cell system allows the easy identification of the processes associated with single neurons. In the BDNF treatment groups, treatment occurred from DIV7-10, during which regular NB was replaced with NB containing 25 ng/ml BDNF. […] Cultures were fixed in 4% paraformaldehyde on DIV10 and immunostained with rat anti-GFP (a gift from Dr. Shu-Chan Hsu, Rutgers University) and MAP-2 (Sigma-Aldrich). Neurons were imaged in the GFP channel at 200× using an Olympus Optical IX50 microscope with a Cooke Sensicam CCD cooled camera, fluorescence imaging system, and ImagePro software (MediaCybernetics). Images were acquired in 8-bit TIFF format, measuring 512×640 pixels.
An embodiment Bonfire program is a series of custom scripts written in, for example, MATLAB (MathWorks), although it will be appreciated that any suitable programming language may be employed. Neuronal morphology was digitized in three stages based on the initial images. In the first stage, the semi-automated tools available through the NeuronJ plugin to ImageJ (NIH, Bethesda Md.) were used to define all neurite positions (FIG. 6(A-B)). The data for each neurite are exported using NeuronJ in the form of a series of nodes with defined positions in the X-Y plane, where nodes belonging to an individual neurite segment are linked by association. These tools allow the user to guide the tracing of each neuritic segment with course resolution by hand but reduce tracing time by using a curve-fitting algorithm to fine-tune the exact location of the nodes defining the neurite position.
In the second stage, portions of the embodiment Bonfire program were used to convert the strings of nodes provided by NeuronJ into SWC format for further manipulation. NeuronStudio is then used to define the pattern of connectivity between neurite segments (FIG. 6(C)). The transformation of the data into SWC format allows for the linkage of the simple strings of nodes defined previously into more complex branching structures. After linking is complete, another component of the embodiment Bonfire program checks the resulting structure for errors and non-linkages (FIG. 6(D)), based on the assumption that each neuritic segment may only give rise to two or less daughter segments. […] These two steps fully determine the structure of each cell's neuritic arbor in 2-dimensional space and encode it in a digital format.
Using these digitized neuritic arbors, a second component of the embodiment Bonfire program was then used to perform process identification and extract the following metrics: number of primary neurites, number of secondary neurites, number of branch points per cell, number of terminal neurite tips per cell, and Sholl analysis performed with a 3.0 μm ring interval (FIG. 6(E)). Sholl analysis is performed conceptually by drawing concentric circles around a cell body at incrementally increasing radii and counting the number of times each circle crosses a neuritic segment. The number of intersections is graphed as a function of radial distance from the cell body to give a quantitative representation of how neurite density varies spatially. […]

[4] = DIV7-10, vs untreated control, data not shown

laminin
myoblast fusion and maturation into striated myotubes ([1]; laminin adsorbed surfaces): robust
myotube differentiation ([1]; surface adsorbed with the substance, data not shown): promoted myotube differentiation

Nc1ccn([C@@H]2O[C@H](CO)[C@@H](O)[C@@H]2O)c(=O)n1 [Ara-C]
axonal outgrowth length (maximum axonal extension from explant body) [2]: did not appreciably reduce

B1: BDNF: a well-studied extracellular factor that regulates neurite morphology (protein, UniProt P23560 19-247, looked up)
Neurotrophic factor BDNF …: APMKEANIRGQGGLAYPGVRTHGTLESVNGPKAGSRGLTSLADTFEHVIEELLDEDQKVRPNEENNKDADLYTSRVMLSSQVPLEPPLLFLLEEYKNYLDAANMSMRVRRHSDPARRGELSVCDSISEWVTAADKKTAVDMSGGTVTVLEKVPVSKGQLKQYFYETKCNPMGYTKEGCRGIDKRHWNSQCRTTQSYVRALTMDSKKRIGWRFIRIDTSCVCTLTIKRGR
average number of branch points per cell ([3]; DIV7-10, vs untreated control): no change between conditions
distal neurites (total Sholl curve) ([3]; DIV7-10, vs untreated control): no effect on distal neurites
number of primary neurites (primary extensions) per cell ([3]; DIV7-10, vs untreated control): statistically significant increase
number of secondary neurites per cell ([3]; DIV7-10, vs untreated control): does not reach statistical significance
number of terminal branches per cell ([3]; DIV7-10, vs untreated control): no change between conditions
average process length [3, 4]: no significant change
total arbor length [3, 4]: no significant change
proximal neurites within the first 35 μm of the soma (total Sholl curve) ([3]; DIV7-10, vs untreated control, global exposure in vitro): increases proximal neurites
number of Sholl intersections with terminal neurites ([3]; DIV7-10, RIT labeling scheme Sholl analysis): increase
number of Sholl intersections with primary neurites ([3]; DIV7-10, segment identity-specific Sholl analysis): increase
